Blank lines part the entries; values can stand above or below the binder they belong to.
Legend:
4H2742-AA = molecular target: T1, 4H2742-AA; assay: two-hybrid library CCmax;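 note: natural log of median RNA to DNA barcode read ratio; higher means stronger binding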
T1 chain: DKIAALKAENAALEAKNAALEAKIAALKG

4H2948-AA = molecular target: T2, 4H2948-AA; assay: two-hybrid library CCmax; conditions: mean of both orientations;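 note: natural log of median RNA to DNA barcode read ratio; higher means stronger binding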
T2 chain: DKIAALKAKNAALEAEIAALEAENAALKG

4H2991-AA = molecular target: T3, 4H2991-AA; assay: two-hybrid library CCmax;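 note: natural log of median RNA to DNA barcode read ratio; higher means stronger binding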
T3 chain: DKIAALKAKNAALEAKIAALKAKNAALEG

4H3029-AA = molecular target: T4, 4H3029-AA; assay: two-hybrid library CCmax; conditions: mean of both orientations;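 note: natural log of median RNA to DNA barcode read ratio; higher means stronger binding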
T4 chain: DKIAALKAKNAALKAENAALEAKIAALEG

4H3066-AA = molecular target: T5, 4H3066-AA; assay: two-hybrid library CCmax; conditions: mean of both orientations;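 note: natural log of median RNA to DNA barcode read ratio; higher means stronger binding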
T5 chain: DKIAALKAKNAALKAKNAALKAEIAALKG

4H3102-AA = molecular target: T6, 4H3102-AA; assay: two-hybrid library CCmax; conditions: mean of both orientations;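 note: natural log of median RNA to DNA barcode read ratio; higher means stronger binding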
T6 chain: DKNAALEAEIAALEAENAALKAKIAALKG

4H3121-AA = molecular target: T7, 4H3121-AA; assay: two-hybrid library CCmax; conditions: mean of both orientations
T7 chain: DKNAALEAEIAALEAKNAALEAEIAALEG

4H3417-AA = molecular target: T8, 4H3417-AA; assay: two-hybrid library CCmax; conditions: mean of both orientations
T8 chain: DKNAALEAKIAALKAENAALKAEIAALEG

4H3446-AA = molecular target: T9, 4H3446-AA; assay: two-hybrid library CCmax; conditions: mean of both orientations
T9 chain: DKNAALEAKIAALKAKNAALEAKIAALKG

4H3591-AA = molecular target: T10, 4H3591-AA; assay: two-hybrid library CCmax; conditions: mean of both orientations
T10 chain: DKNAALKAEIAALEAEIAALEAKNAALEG

4H3628-AA = molecular target: T11, 4H3628-AA; assay: two-hybrid library CCmax
T11 chain: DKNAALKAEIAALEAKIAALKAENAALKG

4H3666-AA = molecular target: T12, 4H3666-AA; assay: two-hybrid library CCmax; conditions: mean of both orientations
T12 chain: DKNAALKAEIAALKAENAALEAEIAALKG

4H3709-AA = molecular target: T13, 4H3709-AA; assay: two-hybrid library CCmax; conditions: mean of both orientations
T13 chain: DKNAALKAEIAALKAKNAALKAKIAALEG

4H391-AA = molecular target: T14, 4H391-AA; assay: two-hybrid library CCmax; conditions: mean of both orientations
T14 chain: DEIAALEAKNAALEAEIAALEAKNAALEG

4H3920-AA = molecular target: T15, 4H3920-AA; assay: two-hybrid library CCmax; conditions: mean of both orientations
T15 chain: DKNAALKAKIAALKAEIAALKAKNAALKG

4H3939-AA = molecular target: T16, 4H3939-AA; assay: two-hybrid library CCmax; conditions: mean of both orientations
T16 chain: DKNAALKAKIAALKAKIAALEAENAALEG

4H428-AA = molecular target: T17, 4H428-AA; assay: two-hybrid library CCmax; conditions: mean of both orientations
T17 chain: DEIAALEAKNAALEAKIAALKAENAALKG

4H478-AA = molecular target: T18, 4H478-AA; assay: two-hybrid library CCmax; conditions: mean of both orientations
T18 chain: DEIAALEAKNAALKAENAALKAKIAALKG

4H497-AA = molecular target: T19, 4H497-AA; assay: two-hybrid library CCmax; conditions: mean of both orientations
T19 chain: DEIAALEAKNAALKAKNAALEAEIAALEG

4H656-AA = molecular target: T20, 4H656-AA; assay: two-hybrid library CCmax; conditions: mean of both orientations
T20 chain: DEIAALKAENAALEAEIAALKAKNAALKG

4H675-AA = molecular target: T21, 4H675-AA; assay: two-hybrid library CCmax; conditions: mean of both orientations
T21 chain: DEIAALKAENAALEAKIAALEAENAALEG

4H971-AA = molecular target: T22, 4H971-AA; assay: two-hybrid library CCmax; conditions: mean of both orientations
T22 chain: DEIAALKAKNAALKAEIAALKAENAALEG

AP8-AA = molecular target: T23, AP8-AA; assay: two-hybrid library CCmax
T23 chain: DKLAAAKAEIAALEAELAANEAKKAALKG

GCN2_T = assay: two-hybrid library CCmax
P1-AA = molecular target: T24, P1-AA; assay: two-hybrid library CCmax; conditions: mean of both orientations
T24 chain: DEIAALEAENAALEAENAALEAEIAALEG

P10-AA = molecular target: T25, P10-AA; assay: two-hybrid library CCmax; conditions: mean of both orientations
T25 chain: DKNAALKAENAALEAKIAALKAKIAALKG

P11-AA = molecular target: T26, P11-AA; assay: two-hybrid library CCmax; conditions: mean of both orientations
T26 chain: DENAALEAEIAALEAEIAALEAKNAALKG

P12-AA = molecular target: T27, P12-AA; assay: two-hybrid library CCmax; conditions: mean of both orientations
T27 chain: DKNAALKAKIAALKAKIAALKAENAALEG

P2-AA = molecular target: T28, P2-AA; assay: two-hybrid library CCmax; conditions: mean of both orientations
T28 chain: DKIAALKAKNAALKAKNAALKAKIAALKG

P3-AA = molecular target: T29, P3-AA; assay: two-hybrid library CCmax; conditions: mean of both orientations
T29 chain: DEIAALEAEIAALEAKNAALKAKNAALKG

P4-AA = molecular target: T30, P4-AA; assay: two-hybrid library CCmax; conditions: mean of both orientations
T30 chain: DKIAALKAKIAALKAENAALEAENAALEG

P7-AA = molecular target: T31, P7-AA; assay: two-hybrid library CCmax; conditions: mean of both orientations
T31 chain: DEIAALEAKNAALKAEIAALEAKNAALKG

P8-AA = molecular target: T32, P8-AA; assay: two-hybrid library CCmax; conditions: mean of both orientations
T32 chain: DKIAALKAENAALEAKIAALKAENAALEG

P9-AA = molecular target: T33, P9-AA; assay: two-hybrid library CCmax; conditions: mean of both orientations
T33 chain: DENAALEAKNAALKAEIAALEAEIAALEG

4H319-bA = molecular target: T34, 4H319-bA; assay: two-hybrid library CCNG1
T34 chain: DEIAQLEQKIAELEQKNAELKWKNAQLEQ

4H3277-bA = molecular target: T35, 4H3277-bA; assay: two-hybrid library CCNG1
T35 chain: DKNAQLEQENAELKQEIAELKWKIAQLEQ

4H348-bA = molecular target: T36, 4H348-bA; assay: two-hybrid library CCNG1
T36 chain: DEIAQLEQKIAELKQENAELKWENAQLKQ

4H40-bA = molecular target: T37, 4H40-bA; assay: two-hybrid library CCNG1
T37 chain: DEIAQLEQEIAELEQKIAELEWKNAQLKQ

4H477-bA = molecular target: T38, 4H477-bA; assay: two-hybrid library CCNG1
T38 chain: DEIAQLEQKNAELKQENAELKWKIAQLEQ

4H492-bA = molecular target: T39, 4H492-bA; assay: two-hybrid library CCNG1
T39 chain: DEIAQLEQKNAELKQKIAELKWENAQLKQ

4H741-bA = molecular target: T40, 4H741-bA; assay: two-hybrid library CCNG1
T40 chain: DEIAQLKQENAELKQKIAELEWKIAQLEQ

- interaction score (4H2742-AA): -0.3
- interaction score (4H2948-AA): -0.899
- interaction score (4H2991-AA): -0.693
- interaction score (4H3029-AA): 0.775
- interaction score (4H3066-AA): 1.72
- interaction score (4H3102-AA): -1.33
- interaction score (4H3121-AA): -1.7
- interaction score (4H3417-AA): -1.41
- interaction score (4H3446-AA): -1.39
- interaction score (4H3591-AA): -0.99
- interaction score (4H3628-AA): -1.49
- interaction score (4H3666-AA): -1.97
- interaction score (4H3709-AA): -1.19
- interaction score (4H391-AA): -1.21
- interaction score (4H3920-AA): -1.23
- interaction score (4H3939-AA): -1.63
- interaction score (4H428-AA): -1.6
- interaction score (4H478-AA): 1.12
- interaction score (4H497-AA): 2.42
- interaction score (4H656-AA): -2
- interaction score (4H675-AA): -1.53
- interaction score (4H971-AA): -1.91
Binder: DKIAALKAENAALEAKNAALEAKIAALKG [4H2742-AA]

- interaction score (AP8-AA): -1.3
- interaction score (GCN2_T): -1.88
- interaction score (P1-AA): -1.78
- interaction score (P10-AA): -0.57
- interaction score (P11-AA): -1.41
- interaction score (P12-AA): -0.366
- interaction score (P2-AA): -1.71
- interaction score (P3-AA): -1.35
- interaction score (P4-AA): -1.17
- interaction score (P7-AA): -1.21
- interaction score (P8-AA): -1.39
- interaction score (P9-AA): -0.718
Binder: DKLAAAKAEIAALEAELAANEAKKAALKG [AP8-AA]

- interaction score (4H319-bA): -0.125
- interaction score (4H3277-bA): -0.964
- interaction score (4H348-bA): -0.881
- interaction score (4H40-bA): -0.44
- interaction score (4H477-bA): -0.399
- interaction score (4H492-bA): -1.05
- interaction score (4H741-bA): -0.873
Binder: DEIAQLEQKIAELEQKNAELKWKNAQLEQ [4H319-bA]
